In patent US20230406924A1:

Target: Mouse TREM-1 analyte (in house, his tagged) (mouse) (UniProt Q9JKE2)
Experiment: SPR (Biacore T200, 25 C), MAB1187 captured on anti rat Fc, his tagged mouse TREM-1 as analyte, 1:1 model

Chain of UniProt Q9JKE2 (Q9JKE2 21-202 limits assumed): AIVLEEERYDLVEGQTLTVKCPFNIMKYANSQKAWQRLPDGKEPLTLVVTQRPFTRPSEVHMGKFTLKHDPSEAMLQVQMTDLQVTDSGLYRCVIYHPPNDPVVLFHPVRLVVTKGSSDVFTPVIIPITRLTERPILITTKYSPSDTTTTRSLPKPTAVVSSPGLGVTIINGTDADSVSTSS

- Kd: 26 nM
- koff: 0.0051 s⁻¹
- kon: 200000 M⁻¹ s⁻¹
Substance: MAB1187, anti-mouse TREM1 monoclonal antibody (R&D Systems, clone 174031)
